Laboratory results taken from US6528295.

Target: Protein Phosphatase Methylesterase-1 (PME-1), endogenous protein of NIH3T3 cells (mouse) (UniProt Q8BVQ5)
Assay: anti-HA co-immunoprecipitation, silver-stained 2D gel

Sequence of Protein Phosphatase Methylesterase-1 (PME-1), endogenous protein of NIH3T3 cells (mouse) (Q8BVQ5 whole entry): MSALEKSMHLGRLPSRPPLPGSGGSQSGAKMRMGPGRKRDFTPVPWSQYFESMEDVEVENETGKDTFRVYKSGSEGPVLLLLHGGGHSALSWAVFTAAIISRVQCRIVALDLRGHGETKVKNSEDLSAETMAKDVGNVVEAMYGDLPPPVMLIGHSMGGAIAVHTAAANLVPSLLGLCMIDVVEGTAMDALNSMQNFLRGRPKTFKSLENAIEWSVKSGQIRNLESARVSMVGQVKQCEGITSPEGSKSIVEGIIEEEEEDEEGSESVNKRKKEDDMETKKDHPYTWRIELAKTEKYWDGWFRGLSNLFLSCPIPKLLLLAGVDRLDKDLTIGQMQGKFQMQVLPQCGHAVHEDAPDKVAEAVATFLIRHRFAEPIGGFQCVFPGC

stoichiometry of PME-1 to the A and C subunits in the immunoprecipitate: 1
Substance: HA-tagged PP2A C subunit mutant H118Q (from UniProt P67775 1-309) (enzyme)
